Assay results as given in the supplement of paper PMC10201428.
± gives the standard deviation of the averaged measurements.

Legend:
[1] = tested on: VchCAST RNA-guided transposition machinery (E. coli BL21(DE3) host, lacZ target); assay: relative integration efficiency (T-RL orientation) vs wild-type transposon end (log2 (normalized fold change)); transposon end mutated: right end (5 bp flank + 75 bp right end); higher = more efficient transposition
How it was run: (§1)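 Pools of 1549 left-end or 1849 right-end barcoded transposon variants were cloned into a pUC57 mini-transposon donor and co-transformed into E. coli BL21(DE3) with a T7-driven effector plasmid carrying a CRISPR array, tniQ-cas8-cas7-cas6 and tnsA-tnsB-tnsC. Plating used 0.1 mM IPTG at 37°C for 18 h, and input plasmids and genomic integration junctions were PCR-amplified for Illumina sequencing, with two biological output replicates and four reference barcodes. Relative integration efficiency is the log-transformed fold change of output over input barcode abundance, normalised to the reference barcodes.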

[2] = tested on: VchCAST RNA-guided transposition machinery (E. coli BL21(DE3) host, lacZ target); assay: relative integration efficiency (T-LR orientation) vs wild-type transposon end (log2 (normalized fold change)); transposon end mutated: right end (5 bp flank + 75 bp right end); higher = more efficient transposition
How it was run: as §1

| Sequence | relative integration efficiency (log2) [1] | relative integration efficiency (log2) [2] |
| --- | --- | --- |
| ACATTTGTTGATACCACCATAAAATGATAATTCCACCCCTACATTGATAATTATCACACCCAATTTAACTATAACGCTCTGATCATAGTCAGACCAACATTGCTACGACCCGTATTCGCACCGACAC | -3.78 ± 0.24 | -0.121 ± 0.44 |
| ACATTTGTTGATACCACCATAAAATGGTAATTACACCCATAAATTGATAATTATCACACCCAATTTAACTATAACGCTCTGATCATAGTCAGACCAACATTGCTACGACCCGTATTCGCACCGACAC | -1.38 ± 0.13 | 2.15 ± 0.17 |
| ACATTTGTTGATACCACCATAAAATGGTAATTACACCCATACATTGATAATTATCACACCCAATTTAACTATAACGCTCTGATCATAGTCAGACCAACATTGCTACGACCCGTATTCGCACCGACAC | -2.87 ± 0.24 | 0.455 ± 0.2 |
| ACATTTGTTGATACCACCATAAAATGGTAATTACACCCCTAAATTGATAATTATCACACCCAATTTAACTATAACGCTCTGATCATAGTCAGACCAACATTGCTACGACCCGTATTCGCACCGACAC | -3.42 ± 0.33 | -0.273 ± 0.24 |
| ACATTTGTTGATACCACCATAAAATGGTAATTACACCCCTACATTGATAATTATCACACCCAATTTAACTATAACGCTCTGATCATAGTCAGACCAACATTGCTACGACCCGTATTCGCACCGACAC | -4.23 ± 0.31 | -0.988 ± 0.042 |
| ACATTTGTTGATACCACCATAAAATGGTAATTCCACCCATAAATTGATAATTATCACACCCAATTTAACTATAACGCTCTGATCATAGTCAGACCAACATTGCTACGACCCGTATTCGCACCGACAC | -1.38 ± 0.23 | 2.06 ± 0.076 |
| ACATTTGTTGATACCACCATAAAATGGTAATTCCACCCATACATTGATAATTATCACACCCAATTTAACTATAACGCTCTGATCATAGTCAGACCAACATTGCTACGACCCGTATTCGCACCGACAC | -3.16 ± 0.49 | 0.278 ± 0.23 |
| ACATTTGTTGATACCACCATAAAATGGTAATTCCACCCCTAAATTGATAATTATCACACCCAATTTAACTATAACGCTCTGATCATAGTCAGACCAACATTGCTACGACCCGTATTCGCACCGACAC | -3.4 ± 0.27 | -0.252 ± 0.21 |
| ACATTTGTTGATACCACCATAAAATGGTAATTCCACCCCTACATTGATAATTATCACACCCAATTTAACTATAACGCTCTGATCATAGTCAGACCAACATTGCTACGACCCGTATTCGCACCGACAC | -4.47 ± 0.45 | -0.833 ± 0.022 |
| ACATTTGTTGATACCACCATCAAATGATAATTACACCCATAAATTGATAATTATCACACCCAATTTAACTATAACGCTCTGATCATAGTCAGACCAACATTGCTACGACCCGTATTCGCACCGACAC | -1.91 ± 0.26 | 1.14 ± 0.18 |
| ACATTTGTTGATACCACCATCAAATGATAATTACACCCATACATTGATAATTATCACACCCAATTTAACTATAACGCTCTGATCATAGTCAGACCAACATTGCTACGACCCGTATTCGCACCGACAC | -3.87 ± 0.1 | -0.805 ± 0.15 |
| ACATTTGTTGATACCACCATCAAATGATAATTACACCCCTAAATTGATAATTATCACACCCAATTTAACTATAACGCTCTGATCATAGTCAGACCAACATTGCTACGACCCGTATTCGCACCGACAC | -4.72 ± 0.056 | -1.78 ± 0.038 |
| ACATTTGTTGATACCACCATCAAATGATAATTACACCCCTACATTGATAATTATCACACCCAATTTAACTATAACGCTCTGATCATAGTCAGACCAACATTGCTACGACCCGTATTCGCACCGACAC | -5.58 ± 0.31 | -2.42 ± 0.59 |
| ACATTTGTTGATACCACCATCAAATGATAATTCCACCCATAAATTGATAATTATCACACCCAATTTAACTATAACGCTCTGATCATAGTCAGACCAACATTGCTACGACCCGTATTCGCACCGACAC | -2.05 ± 0.11 | 1.36 ± 0.27 |
| ACATTTGTTGATACCACCATCAAATGATAATTCCACCCATACATTGATAATTATCACACCCAATTTAACTATAACGCTCTGATCATAGTCAGACCAACATTGCTACGACCCGTATTCGCACCGACAC | -4.883 ± 0.0066 | -1.66 ± 0.086 |
